Test in all cases: flow cytometry, transfected 293T cells
Experiment [1] has as its target T1, CHIKV E2-E1 envelope glycoproteins (strain S27), E2 mutant F115A (chikungunya virus strain S27, UniProt Q8JUX5 1-1248; Q8JUX5 810-1248).
T1 construct: whole, on cells; E2 domain A

Experiment [2] has as its target T2, CHIKV E2-E1 envelope glycoproteins (strain S27), E2 mutant A76S (chikungunya virus strain S27, UniProt Q8JUX5 1-1248; Q8JUX5 810-1248).
T2 construct: whole, on cells; E2 domain A

For experiment [3], the target named is T3, CHIKV E2-E1 envelope glycoproteins (strain S27), E2 mutant R104A (chikungunya virus strain S27, UniProt Q8JUX5 1-1248; Q8JUX5 810-1248).
T3 construct: whole, on cells; E2 domain A

Experiment [4] has as its target T4, CHIKV E2-E1 envelope glycoproteins (strain S27), E2 mutant D132A (chikungunya virus strain S27, UniProt Q8JUX5 1-1248; Q8JUX5 810-1248).
T4 construct: whole, on cells; E2 domain A

Experiment [5] concerns the target T5, CHIKV E2-E1 envelope glycoproteins (strain S27), E2 mutant R36A (chikungunya virus strain S27, UniProt Q8JUX5 1-1248; Q8JUX5 810-1248).
T5 construct: whole, on cells; E2 domain A

In experiment [6] the target is T6, CHIKV E2-E1 envelope glycoproteins (strain S27), E2 mutant K66A (chikungunya virus strain S27, UniProt Q8JUX5 1-1248; Q8JUX5 810-1248).
T6 construct: whole, on cells; E2 domain A

Experiment [7] has as its target T7, CHIKV E2-6K-E1 envelope proteins (strain S27) with E2 I217A (Chikungunya virus strain S27, UniProt Q8JUX5 1-1248; Q8JUX5 810-1248).
T7 construct: whole, on cells

B1: Mxra8-Fc (mouse Mxra8 extracellular domain fused to mouse IgG2b Fc) (Fc fusion)
chain: SGPSGTAAASSSLVSESVVSLAAGTQAVLRCQSPRMVWTQDRLHDRQRVVHWDLSGGPGSQRRRLVDMYSAGEQRVYEPRDRDRLLLSPSAFHDGNFSLLIRAVDRGDEGVYTCNLHHHYCHLDESLAVRLEVTEDPLLSRAYWDGEKEVLVVAHGAPALMTCINRAHVWTDRHLEEAQQVVHWDRQLPGVSHDRADRLLDLYASGERRAYGPPFLRDRVSVNTNAFARGDFSLRIDELERADEGIYSCHLHHHYCGLHERRVFHLQVTEPAFEPPARASPGNGSGHSSAPSPDPTLTRGHSIINVIVPEDHTHPSGPISTINPCPPCKECHKCPAPNLEGGPSVFIFPPNIKDVLMISLTPKVTCVVVDVSEDDPDVQISWFVNNVEVHTAQTQTHREDYNSTIRVVSTLPIQHQDWMSGKEFKCKVNNKDLPSPIERTISKIKGLVRAPQVYILPPPAEQLSRKDVSLTCLVVGFNPGDISVEWTSNGHTEENYKDTAPVLDSDGSYFIYSKLNMKTSKWEKTDSFSCNVRHEGLKNYYLKKTISRSPGK
On to B1, for which the “Binding Reactivity (% WT)” value turned out to be 3.3 % WT in experiment [1]; 85 % WT in experiment [2]; 49.9 % WT in experiment [3]; 105 % WT in experiment [4]; 68.3 % WT in experiment [5]; 93.1 % WT in experiment [6].

B2: Mxra8-Fc (mouse Mxra8 extracellular domain fused to mouse IgG2b Fc) (Fc fusion)
chain: B1 chain
As to B2, in experiment [7], the “Binding Reactivity (% WT)” value is 12.3 % WT.

Values taken from patent publication US20240124553A1 (WASHINGTON UNIVERSITY, published 2024).
